Tests used:
[1] = target: S. cerevisiae RNA polymerase II (Pol II), stalled elongation complex on DNA with nascent RNA (S. cerevisiae) (UniProt P16370)
[2] = target: S. cerevisiae RNA polymerase II (Pol II), stalled elongation complex on DNA with nascent RNA (S. cerevisiae) (UniProt P16370); remark: listed apart in the source

UniProt P16370, sequence (P16370 whole entry, looked up, one chain of several): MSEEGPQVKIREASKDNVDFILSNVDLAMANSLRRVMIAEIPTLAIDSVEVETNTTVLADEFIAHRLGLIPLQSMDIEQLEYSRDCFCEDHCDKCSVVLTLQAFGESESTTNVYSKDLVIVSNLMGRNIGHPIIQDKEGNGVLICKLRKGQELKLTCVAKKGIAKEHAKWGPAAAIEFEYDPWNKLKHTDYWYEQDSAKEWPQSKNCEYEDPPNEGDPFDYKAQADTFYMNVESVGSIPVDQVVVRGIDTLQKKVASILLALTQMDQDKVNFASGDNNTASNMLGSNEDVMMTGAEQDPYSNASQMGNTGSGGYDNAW

B1: Sen1 helicase domain (Sen1 HD, 1095–1904) (domain or fragment)
chain: AELAKQELEHMRKRLNVDMNPLYEIILQWDYTRNSEYPDDEPIGNYSDVKDFFNSPADYQKVMKPLLLLESWQGLCSSRDREDYKPFSIIVGNRTAVSDFYDVYASVAKQVIQDCGISESDLIVMAYLPDFRPDKRLSSDDFKKAQHTCLAKVRTLKNTKGGNVDVTLRIHRNHSFSKFLTLRSEIYCVKVMQMTTIEREYSTLEGLEYYDLVGQILQAKPSPPVNVDAAEIETVKKSYKLNTSQAEAIVNSVSKEGFSLIQGPPGTGKTKTILGIIGYFLSTKNASSSNVIKVPLEKNSSNTEQLLKKQKILICAPSNAAVDEICLRLKSGVYDKQGHQFKPQLVRVGRSDVVNVAIKDLTLEELVDKRIGERNYEIRTDPELERKFNNAVTKRRELRGKLDSESGNPESPMSTEDISKLQLKIRELSKIINELGRDRDEMREKNSVNYRNRDLDRRNAQAHILAVSDIICSTLSGSAHDVLATMGIKFDTVIIDEACQCTELSSIIPLRYGGKRCIMVGDPNQLPPTVLSGAASNFKYNQSLFVRMEKNSSPYLLDVQYRMHPSISKFPSSEFYQGRLKDGPGMDILNKRPWHQLEPLAPYKFFDIISGRQEQNAKTMSYTNMEEIRVAIELVDYLFRKFDNKIDFTGKIGIISPYREQMQKMRKEFARYFGGMINKSIDFNTIDGFQGQEKEIILISCVRADDTKSSVGFLKDFRRMNVALTRAKTSIWVLGHQRSLAKSKLWRDLIEDAKDRSCLAYACSGFLDPRNNRAQSILRKFNVPVPSEQEDDYKLPMEYITQGPDEVKSN
Work on B1 yielded a Km of formation of the intermediate (Sen1·sEC)'; Michaelis-Menten fit of t1, the lifetime before the intermediate forms [1] of 0.096 nM, a Km of removal of stalled Pol II by Sen1 HD (10-100 pM); Michaelis-Menten fit of the mean total lifetime (t total) of the transcription bubble; magnetic-trap DNA supercoiling assay, 1 mM ATP, 28 °C [1] of 70 pM and a Km of removal of stalled Pol II by Sen1 HD; Michaelis-Menten fit of t total, corrected for the stalling rate ks [1] of 0.083 nM. It also gave a Km of removal of stalled Pol II by Sen1 HD; single-molecule Michaelis-Menten global fit of t total distributions (from k1, k-1 and kCAT) [1] of 0.041 nM, a k1, rate of binding of Sen1 HD to the stalled elongation complex; single-molecule Michaelis-Menten global fit of t total distributions, kCAT constrained [1] of 2.18e+09 M⁻¹ s⁻¹ and a k−1, rate of unbinding of Sen1 HD from the stalled elongation complex; single-molecule Michaelis-Menten global fit of t total distributions, kCAT constrained [1] of 0.0725 s⁻¹. The k−1, rate of unbinding of Sen1 HD from the stalled elongation complex; the same fit [2] was 0.0719 s⁻¹.

Source: paper PMC6449345
